Assay [1] addresses T1, Human Tau 2N4R, wild type, recombinant full length (human, UniProt P10636 2-758).
T1 construct: Full length 2N4R isoform; monomer in SPR and ELISA; heparin-induced aggregates or seeds in the functional assays; also called Tau441; Tau-441
The assay can be described thus: SPR BIAcore, anti-human capture, monomeric Tau, 1:1 Langmuir. The procedure:
(§1) All experiments were performed using a BIAcore™ T-100 instrument (GE Healthcare). 10 μL anti-human IgG (monoclonal mouse anti-human Fc) from human antibody capture kit (GE Healthcare) was diluted to 25 μL/mL in 200 μL final immobilization buffer (10 mM sodium acetate, pH 5.0). The flow rate was set to 5 μL/min, flowpath 1. Fifty μL N-hydroxysuccinamide (NETS) and 50 μL 1-ethyl-3-(3-dimethylaminopropyl) carbidiimide (EDC) were mixed and injected for 420 sec to activate the CM5 chip surface. The diluted antibody was injected for 360 seconds followed by 1 M ethanolamine for 420 seconds. The flowpath was then switched to flowpath 2. A new EDC/NHS mixture was prepared and the procedure was repeated for flow cell 2. The surface was conditioned by 2 injections of 30 sec using flowpath 1, 2 at 30 μL/min of 3M MgCl₂. For the anti-mouse surface, 10 μL anti-mouse IgG (polyclonal rabbit anti-mouse IgG) from mouse antibody capture kit (GE Healthcare) was diluted to 30 μL/mL in 324 μL final immobilization buffer (10 mM sodium acetate, pH 5.0). The flow rate was set to 5 μL/min, flowpath 3. Fifty μL NHS and 50 μL EDC were mixed and injected for 420 sec to activate the chip surface. The diluted antibody was injected for 420 sec. 1 M ethanolamine was injected for 420 sec. Flow path was switched to flowpath 4. A new EDC/NHS mixture was prepared and the procedure was repeated for flow cell 4. The surface was conditioned by 2 injections of 30 sec using flowpath 3, 4 at 30 μL/min of 10 mM glycine, pH 1.7.
Tau binding for humanized mAbs was analyzed by BIAcore™ in two different formats. The first format was performed as above, i.e. mAbs were captured with an immobilized species-specific anti-Fc antibody. […] In the second format, biotinylated mAbs were captured on a streptavidin-coated chip. This latter format allowed direct comparison of Tau binding affinity between humanized and the parental mouse antibody since the capture method was identical.
The final humanized mAbs were analyzed by BIAcore™ to determine the kₐ, kd, and KD for binding to Tau as above (Table 10).
A general note: In SPR one partner is held on a chip, and binding of the other changes the refractive index at the surface.

Assay [2] deals with T1, Human Tau 2N4R, wild type, recombinant …. Briefly: SPR, streptavidin capture; against 7G6-HCzu24 and 7G6-HCzu25 mAbs. The procedure:
(§2) 400 μg of each antibody was diluted to 2 mg/mL and buffer-exchanged into 0.1 M sodium bicarbonate, pH 8.3 using 0.5 mL Zeba™ 40 kDa MWCO desalting columns (Thermo). NHS-PEG4-biotin, prepared immediately before use by dissolving in water to a 20 mM final stock concentration, was added to antibodies at a 5:1 molar ratio (biotin:MAb) and conjugated for 1 hr at room temperature. Excess biotin was removed by two sequential buffer exchanges into 1×DPBS using 0.5 mL Zeba™ 40 kDa MWCO desalting columns. For the BIAcore™ assay, antibodies were diluted to 2 μg/mL in PBS-P+/0.2% BSA (the same preparation used for the running buffer), centrifuged at 14,000 g for 5 min at room temperature, and the supernatant transferred to a new tube. Injection time was subsequently determined for each antibody to achieve a capture level of ˜225 RU.
(§3) Biotinylated humanized and mouse mAbs were captured on a streptavidin-coated chip and kₐ, kd, and KD were determined for binding to Tau (Table 11). […] The affinity of 7G6-HCzu8-LCzu6, 7G6-HCzu24-LCzu15, 7G6-HCzu24-LCzu18, 7G6-HCzu25-LCzu15, and 7G6-HCzu25-LCzu18 were all similar.

The target is the same in assay [3]. Briefly: SPR BIAcore, biotinylated mAb on streptavidin (CAP) chip, single cycle, 1:1 Langmuir. How it is done: as §2, §3
The target is the same in assay [4]. The assay can be described thus: SPR, streptavidin capture; against ms7G6. The procedure: as §2, §3
The target is the same in assay [5]. The assay can be described thus: SPR BIAcore, anti-human Fc capture, multi-cycle, 1:1 Langmuir, average of flow cells. How it is done: A 0 nM Tau protein solution was prepared by adding 3 mL Assay Running Buffer to labeled 5 mL tube. Analyte dilutions were transferred to labeled 4 mL plastic vials and capped with type 5 caps, vortexed briefly to remove any air bubbles adhered to tube walls or bottom, and placed in Sample and Reagent Rack 1. For chip conditioning analyte sample, 5 μL of 1 μM Tau protein solution supernatant was removed and diluted to 500 μL in Assay Buffer in a 7 mm plastic vial, capped, vortexed briefly to dislodge adhered air bubbles, and placed in Sample and Reagent Rack 1. Humanized antibodies were captured on flow cells 2, 3, and 4 sequentially at a flow rate of 10 μL/min for a contact time of 36 sec. Dilutions of Tau protein were injected over all 4 flow cells at a flow rate of 30 μL/min for a contact time of 300 sec. Dissociation was followed for 1800 sec. Following each cycle, the surface was regenerated by two sequential injections of 30 sec at 30 μL/min of 3 M MgCl₂ over all four flow cells. After the run, kinetic data fitting was performed using a 1:1 Langmuir model.
The affinity of recombinant human wild-type 2N4R Tau protein to 7G6-HCzu25LCzu18 antibody was determined using an antibody-capture format assay. Following capture of 7G6-HCzu25LCzu18 antibody, human Tau protein was injected over the ligand surface for 300 sec, followed by observation and measurement of dissociation for 1800 sec. After each antibody capture, Tau protein binding, and dissociation cycle, the chip surface was regenerated to the anti-human antibody capture surface using 3M MgCl₂, as required by the manufacturer. Tau protein was analyzed in a concentration range from 100 nM to 0.046 nM (3-fold diluted). The assay was performed in multi-cycle mode, such that a dissociation was performed for each tau protein injection. Each ligand was analyzed on all three flow cells (fc2, fc3, and fc4) in triplicate, in order to eliminate any flow cell-specific effects.
Binding data was double-referenced, meaning referenced to both fc1 with no ligand bound and to buffer analyte injections (0 nM Tau protein). […]

Assay [6] deals with T2, HVPGG site of Tau (15-mer array peptides containing HVPGG) (human).
T2 peptide: HVPGG
The assay can be described thus: peptide microarray; HVPGG site of the fourth repeat region against HKPGG (repeat region 3). How it is done: (§4) The diluted antibody was incubated on the chip for 16 hours at 4° C. with shaking at 140 rpm. Primary antibody was removed and the chip was washed in PBS (pH 7.4)/0.05% Tween 20. Wash buffer was removed and goat anti-mouse IgG (H+L) DyLight™680 (1:5000) and an anti-HA tag DyLight™ 800 (1:2000) in the same buffer as the primary antibody was then incubated for 45 minutes at room temperature on the chip. Detection antibody was removed and the chip was washed once again as previously. Fluorescence images were acquired on the LI-COR Odyssey™ Imaging System and the microarray data was finally analyzed using the PepSlide™ Analyser software.

Assay [7] concerns the target T2, HVPGG site of Tau (15-mer array …). Briefly: peptide microarray; HVPGG site of the fourth repeat region against HQPGG (repeat region 1). The procedure:
as §4

The target is the same in assay [8]. Briefly: peptide microarray; HVPGG site of the second repeat region against HKPGG (repeat region 3). How it is done:
as §4

For assay [9] the target is unchanged. Briefly: peptide microarray; HVPGG site of the second repeat region against HQPGG (repeat region 1). The procedure: as §4
In assay [10] the target is T1, Human Tau 2N4R, wild type, recombinant …. The assay can be described thus: SPR BIAcore, mAb captured by anti-human IgG, Tau flowed, 1:1 Langmuir. The procedure: as §1
Binding of humanized and mouse antibodies were analyzed by surface plasmon resonance (BIAcore™) to determine their relative association rates (kₐ), dissociation rates (kd), and equilibrium binding constants (KD). Anti-mouse or anti-human antibodies were immobilized on a CM5 chip and sample mAbs were captured on the chip. 2N4R Tau was flowed over the chip and binding observed. The binding constants kₐ, kd, and KD were determined using a 1:1 Langmuir fitting model.

Assay [11] shares this target. Briefly: SPR, streptavidin capture; against 7G6-HCzu8-LCzu6. How it is done: as §2, §3

Five molecules from patent US20190112365A1 (EISAI R AND D MANAGEMENT, published 2019) can be followed below.

Substitutions are numbered along the chain they refer to. “And” between values parts separate entries of the source, which are not always exact repeats. Identical values can stand only once.

Broadly, the Kd is the free concentration of one partner at which half of the binding sites on the other are occupied at equilibrium, for simple one-to-one binding. In general, koff refers to the rate constant with which the complex falls apart. Usually kon stands for a measure of how fast the partners come together.

T1 sequence (P10636 other isoform, or with tags, fused parts or gaps limits assumed): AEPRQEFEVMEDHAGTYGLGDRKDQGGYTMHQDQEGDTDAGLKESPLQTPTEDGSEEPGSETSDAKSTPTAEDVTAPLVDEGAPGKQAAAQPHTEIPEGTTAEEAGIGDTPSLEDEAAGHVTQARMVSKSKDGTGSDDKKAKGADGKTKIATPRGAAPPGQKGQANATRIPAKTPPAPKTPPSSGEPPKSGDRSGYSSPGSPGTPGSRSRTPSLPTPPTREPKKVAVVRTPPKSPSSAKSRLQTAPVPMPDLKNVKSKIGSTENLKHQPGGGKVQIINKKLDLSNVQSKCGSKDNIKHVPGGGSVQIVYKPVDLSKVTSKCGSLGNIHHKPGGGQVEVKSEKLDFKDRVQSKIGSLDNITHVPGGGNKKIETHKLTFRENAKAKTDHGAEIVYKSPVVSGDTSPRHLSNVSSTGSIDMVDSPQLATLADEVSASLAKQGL

B1: 7G6-HCzu23-LCzu15 (antibody, human IgG1, kappa)
heavy: not shown
light: DVQMTQSPSSLSASVGDRVTITCRSSQSILHSNGNTYLEWYQQKPGKAPKLLISKVSNRFSGVPSRFSGSGSGTDFTLTISSLQPEDFATYYCFQGSHVPFTFGQGTKLEIKRTVAAPSVFIFPPSDEQLKSGTASVVCLLNNFYPREAKVQWKVDNALQSGNSQESVTEQDSKDSTYSLSSTLTLSKADYEKHKVYACEVTHQGLSSPVTKSFNRGEC
notes: humanized, human IgG1 kappa
With B1, in assay [1], the equilibrium dissociation constant (Kd) is 0.25 nM, the off-rate (koff) worked out at 0.00039 s⁻¹ and the kon was 1.61e+06 M⁻¹ s⁻¹. Moreover, in assay [2], the “fold drop in affinity” value was approximately 2 fold. In assay [3], the Kd was found to be 0.152 nM, the off-rate constant (koff) was 0.000332 s⁻¹ and the kon turned out to be 2.18e+06 M⁻¹ s⁻¹.

B2: 7G6-HCzu25-LCzu18 (antibody, human IgG1, kappa)
heavy: not shown
light: B1 light with V2I
notes: humanized, human IgG1 kappa; also called 7G6-zuHC25-zuLC18; 7G6-HCzu25-LCzu18-HEK
As to B2, in assay [4], the “fold drop in affinity” value is approximately 1.4 fold. Besides, the equilibrium dissociation constant (Kd) in assay [1] was 0.13 nM; in assay [3], 0.0881 nM; in assay [5], 0.0657 nM and 0.0659 nM and 0.0645 nM. The koff was 0.00014 s⁻¹ in assay [1]; 0.000307 s⁻¹ in assay [3]; 0.000126 s⁻¹ (2×) and 0.000123 s⁻¹ in assay [5]. In addition, the kon was 1.11e+06 M⁻¹ s⁻¹ in [1]; 3.5e+06 M⁻¹ s⁻¹ in assay [3]; 1.92e+06 M⁻¹ s⁻¹ and 1.91e+06 M⁻¹ s⁻¹ in [5]. Besides, the “fold preference in binding (average signal intensities)” value is 119 fold in assay [6], 77 fold in assay [7], 100 fold in [8] and 65 fold in [9].

B3: 7G6-HCzu23-LCzu18 (antibody, human IgG1, kappa)
heavy: not shown
light: B1 light with V2I
notes: humanized, human IgG1 kappa
Consider B3, for which, in assay [1], the Kd was found to be 0.22 nM, the koff is 0.00037 s⁻¹ and the kon worked out at 1.71e+06 M⁻¹ s⁻¹. The “fold drop in affinity” value in [2] is approximately 2 fold. In addition, in assay [3], the Kd amounted to 0.182 nM, the koff was 0.00039 s⁻¹ and the kon was determined as 2.14e+06 M⁻¹ s⁻¹.

B4: 7G6-HCzu8-LCzu6 (antibody, human IgG1, kappa, V domains shown)
VH: QVQLVQSGAEVKKPGASVKVSCKASGYTFTTYWITWVRQAPGQGLEWMGDIYPGSSISNYAQKFQGRVTMTRDTSTSTVYMELSSLRSEDTAVYYCAREDGYDAWFAYWGQGTLVTVSS
VL: DVVMTQSPLSLPVTLGQPASISCRSSQSILHSNGNTYLEWYQQRPGQSPRLLISKVSNRFSGVPDRFSGSGSGTDFTLKISRVEAEDVGVYYCFQGSHVPFTFGQGTKLEIKR
modifications: N-terminal pyroglutamic acid
notes: humanized, human IgG1 kappa; also called 7G6-HCzu8-LCzu6-HEK; ATCC PTA-124523
For B4, the “fold drop in affinity” value in assay [4] is approximately 1.4 fold. The Kd in assay [1] came out at 0.15 nM; in assay [10], 0.0968 nM; in assay [3], 0.0915 nM. Besides, the koff in assay [1] is 0.00022 s⁻¹; in assay [10], 0.00021 s⁻¹; in assay [3] it was 0.000258 s⁻¹. For the same molecule, the kon was found to be 1.49e+06 M⁻¹ s⁻¹ in assay [1], 2.17e+06 M⁻¹ s⁻¹ in assay [10] and 2.82e+06 M⁻¹ s⁻¹ in assay [3]. Also, the “fold preference in binding (average signal intensities)” value in assay [6] was determined as 95 fold; in assay [7] it was 99 fold; in assay [8], 104 fold; in [9], 108 fold.

B5: 7G6-HCzu8-LCzu21 (antibody, human IgG1, kappa, V domains shown)
VH: B4 VH
VL: B4 VL with Y41F
modifications: N-terminal pyroglutamic acid
notes: humanized, human IgG1 kappa
Regarding B5, in assay [11], the “fold drop in affinity” value was less than 2 fold. Also, in [3], the Kd stood at 0.138 nM, the koff came to 0.000313 s⁻¹ and the association rate constant (kon) is 2.28e+06 M⁻¹ s⁻¹.
